Reference: the supplement of paper PMC12764529
± gives the half width of the 95% confidence interval.

Assay: folding stability dG unfold from trypsin proteolysis; higher = more stable
Summary of the method: (§1)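 Designed mini-proteins (under 80 residues, no cysteine) in a PA-tagged cDNA display construct were digested with trypsin and chymotrypsin. Each protease was used at 11 concentrations (threefold dilutions) plus a no-protease condition, followed by sequencing. K50 was inferred by Bayesian fitting of sequencing counts, and unfolding free energy was derived against a sequence-predicted unfolded-state K50 and a shared folded-state K50, per protease or combined. Only designs with AlphaFold2 dimer inter-PAE above 15 were kept.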

Sequence | folding stability dG unfold [kcal/mol]
SAGMSLEEIAKEFAKKKGLKKVEIKYYPEKKTYEIKVYLEEPGEPKTATIKVEDVTPETFKKAIEEILESAG [r5_896_TrMRF] | 3.61 ± 0.32
SAGGSAGGSAGGSSMTIEEQKEKIKKEVPLGKSVTIEYPDKTVTLTIDPKSGKITVTISSAGGSAGGSAGGS [r4_150_JUSTAS] | 0.61 ± 0.079
SAGMYMVTITWEYPNGWTFEFMVFVRGPNPEEAREQVDEAAREIFEQRDHPIKDVKVDVQPMPPGQEISAGG [r19_335_TrROS] | 1.96 ± 0.064
SAGGMSTTKTVTSGGSTVTITTEPLPDGTTLSTVTVKSGGSPVTTITIPTSQLGEVAAAGGFAPADLLSAGG [r13_108_JUSTAS] | 0.0387 ± 0.054
SAGGSAGGSAGGNVIRVEKEPNTVVLYFPDGTYRVVEVEKKDESVKVLSEKVEPIVPGLLSAGGSAGGSAGG [r7_443_JUSTAS] | 1.12 ± 0.024
SAGNIKIEVEELGPGWYVIKVEIPYDSPEQMLDMIKDIIRDFFGEPVKIDEVEIDPDEGWIEKTIRIPLSAG [r5_810_TrROS] | 1.58 ± 0.067
SAGGMKIKIKIKPGQVILIKIRNKETGEEKTILVEVKEDQEITIELPEGYEIVDIKIVPLEDLPEEELSAGG [r13_119_TrROS_Hall] | 3.94 ± 0.3
SAGGSAMMELEIEIKVEGMTEEELRELAERLAAELTPEGWKVVAVRVERVDEEEGVVRVTVVVEPVSAGGSA [r15_96_TrROS_Hall] | 4.31 ± 0.35
SAGGSAGGSAGGMLALIYGKEKPILLSAEEILNNPELLKELEKKGYPIVKIEFFKEEELSAGGSAGGSAGGS [r10_396_TrMRF] | 1.07 ± 0.049
SAGGSAGGSKKVYLKVTVYHKNGKKTTLEIGPITDEDGKPIETYAKELAEHPDVEKVEVEVLGSAGGSAGGS [r12_199_TrMRF] | 3.79 ± 0.13
SAGGDVKEFDSPEDLNKALPALKNGKEVHIRVEMRMPQPDPDGEPRQYPMEFWYTIKLKNGELEIEPISAGG [r13_835_TrROS] | 0.593 ± 0.071
SAGGSAGGRTLRIMVPMDSPEDAVEQAKEIVRELGLPPNFKIDDINVHRNPNGRYQVMVKIRVNSAGGSAGG [r6_284_TrROS] | 1.05 ± 0.052
SAGGSAGGSAGNKYLIKVKKKNGNKSEELEIEVEDNPEIAEKIAEELKKKGNIVSVEIKKASAGGSAGGSAG [r3_310_TrMRF] | 0.761 ± 0.1
SAGGSVRLELEGVNPETGERYRLEFELPPVPLPPVLVVPLEDLELLRRLGIPEDAAVFPELGLVVVASAGGS [r16_194_TrMRF] | 2.29 ± 0.082
SAGGSAGGMTITISTGSSGLTVNITLTPPTGPPVTVTISFDPSELEEFLKELPDYEIESITVEGSAGGSAGG [r6_879_JUSTAS] | 2.79 ± 0.17
SAGGSAGGSALLEALKALPPNATLTLVTVETRTETVTDADGSTHTRTTTRVTVTTITIRPEDLSAGGSAGGS [r12_805_TrROS_Hall] | 2.27 ± 0.12
SAGGSAGGSAGVEEIAKILQELGFEVEVEPVPDGMRTIEVQNKNGKKITIRITADGKIEISAGGSAGGSAGG [r17_503_TrROS] | 1.9 ± 0.03
SAGGSAGGSAGGMKTIVLPNVTPEEAEALAAELEKKYPGRTVNVTYVPENPTTVVITVGSAGGSAGGSAGGS [r10_852_JUSTAS] | 2.21 ± 0.085
SAGMTTVEVTRTFPADVPVTEEDLELAEKEREEIAAELPESYVVTLASVTYERRPDSWTVTATFTITAPSAG [r5_121_JUSTAS] | 1.47 ± 0.017
SAGGSAGGSAGMNPVVIETTETLPNGTVVRTTEIVDPSNPDKVVSTKTEISSVPSNAPLLSAGGSAGGSAGG [r17_299_JUSTAS] | 0.342 ± 0.082
SAGGSAGGMKQYIVTVTLKSPDGTEHTIELETESLDEVKEKLKNLPDPNLELVELKVVPKEELASAGGSAGG [r6_297_JUSTAS] | 2.39 ± 0.098

Sequence | folding stability dG unfold [kcal/mol]
SAGGSAGGKEIKVIELPEEKVTIEVTITLEDGTVIKVTAVIDAETGEIVEITSVEIVPLPAEEKSAGGSAGG [r6_927_TrROS_Hall] | -0.122 ± 0.11
SAGGSAGGSMVYTPPEVLTPVREVTITVTTSSYSPSGGTPVTSTSTVPVLVYKDPSGRTAIVPPSAGGSAGG [r6_278_JUSTAS] | -0.0213 ± 0.072
SAGGSAGGSAGGGNPFLVRTEFFTLPDNTVIRRLAVVHSDGSLSVFPSLLPVPPNSLKLSAGGSAGGSAGGS [r10_280_TrMRF] | 0.412 ± 0.041
SAGGSAGGSAGGSPPMPMRIDEVEYDPPNGRYEITVEPDNGNPQTITMPPGNIDEAYIVSAGGSAGGSAGGS [r4_51_TrROS] | 1.47 ± 0.12
SAGMDIIKELLEKNPKPKVIRMHMNPPNGYFRIQVNGKPIDLPLPPGHYEMEFVVDPKGKIEDVKPHPMSAG [r5_329_TrROS] | 0.0656 ± 0.15
SAGGSAGGSAGGPVVEELEEDLVTEYFRDGDDLYKVVFIPGTGKPFEKKIESIPPDEPFSAGGSAGGSAGGS [r10_240_TrMRF] | 0.119 ± 0.088
SAGGSAGGSAGGPPKPIKVLLYKPEENKLYVLVFPEGVSLEEVKKYVESHPNFKIVSVEGSAGGSAGGSAGG [r7_624_TrMRF] | 2.04 ± 0.087
SAGGSAGGSAGGSPGVGERVVPVEDGVVRVRVFPDFAVVEYENGGVETMTLDDLVRALSSAGGSAGGSAGGS [r4_242_TrMRF] | 0.497 ± 0.064
SAGGSKKVPIKVKIEVYNKNGEKMTLEELLKKLEENAKVEKDEKGRLTLYIVNKKTNKIVKIEVEKSAGGSA [r2_234_TrROS_Hall] | 1.74 ± 0.18
SAGGMHHLEIYRFEDRKLVVLHLEDKPVVIEVEPGLTEEEAAEKAIEALKEAFPDKEIVIDSVEVKEESAGG [r13_884_TrMRF] | -0.0489 ± 0.064
SAGKKLLVVVEIRVFDKDGKLVREERLVIEVPEEDEEALRRLLEEARRLAEALLPPGARVEIRVRVLPPSAG [r5_793_TrROS_Hall] | 2.98 ± 0.13
SEKLVIFVPPNMTVEEIVALAKKYPDKEIVIVMPPNMSEEQKERILKALRDAGLPEGVKVTIVEVEPEDLSA [r9_670_TrROS_Hall] | 3.73 ± 0.095
SAGGSMPVEIKLLEEEVLPDGVTIKKVKAEDGSEMTVTVTKLPGNTYKVTITNPANGTTSTFTLPESAGGSA [r2_361_JUSTAS] | 0.932 ± 0.035
SAGGSAGGSAGGPEIVSAEVLAVFDDGKLVKVKLRVPTPGKGYRYLEAVFLVKPGEKLLSAGGSAGGSAGGS [r10_1183_TrMRF] | 2.05 ± 0.052
SAGGMYRVKVGDDERLIDTDPENFKTLEEAVKKVAEKIKEEYPNRPELTITVEAEDGTPLATVTITLSSAGG [r13_257_JUSTAS] | 0.759 ± 0.12
SAGGSAGGSAGGPTITSSKIVAEYPGGKVIEVTIEEPLPTPSTVTKTVTLFIPEGSVLLSAGGSAGGSAGGS [r10_1183_JUSTAS] | 0.536 ± 0.087
SAGGSARIKIDPPGKIKVYYNGQPFTIKPGVELDIQRTDDMIVLRIRMRDPDGKPVGEFPFMFRIKSAGGSA [r15_424_TrROS] | 2.13 ± 0.073
SAGPPIWIRAEIEHPRPNPDDGEPQERKREVWIRLPEDLLENGMPVEELAKELASNYPGYKVKIDEILSAGG [r19_110_TrROS] | 0.552 ± 0.026
SAGGSAGTVKFKQPFPFYDPGNGWPFPIDIKITVEYKPDPNGEPKWQITKIEIKMPEGSPALKDLISAGGSA [r15_258_TrROS] | 1.82 ± 0.11
SAGGSAGGGSLTPLSEDETTITLRLSPSLDEVLKELGLTVTGVEEEGETVTVTVKVSPEVKEKLSAGGSAGG [r6_109_JUSTAS] | 0.13 ± 0.062
SAGGSAGGSAGDTLILVRNEDGRLYLIRVRAYRVPGEDGSLVFEVEIVEFPSLEEALAALSAGGSAGGSAGG [r11_967_TrROS_Hall] | 4.05 ± 0.065

Assay: folding stability dG unfold from chymotrypsin proteolysis; higher = more stable
Summary of the method: as §1

Sequence | folding stability dG unfold [kcal/mol]
SAGMSLEEIAKEFAKKKGLKKVEIKYYPEKKTYEIKVYLEEPGEPKTATIKVEDVTPETFKKAIEEILESAG [r5_896_TrMRF] | 4.75 ± 0.16
SAGGSAGGSAGGSSMTIEEQKEKIKKEVPLGKSVTIEYPDKTVTLTIDPKSGKITVTISSAGGSAGGSAGGS [r4_150_JUSTAS] | 1.44 ± 0.021
SAGMYMVTITWEYPNGWTFEFMVFVRGPNPEEAREQVDEAAREIFEQRDHPIKDVKVDVQPMPPGQEISAGG [r19_335_TrROS] | 3.18 ± 0.054
SAGGMSTTKTVTSGGSTVTITTEPLPDGTTLSTVTVKSGGSPVTTITIPTSQLGEVAAAGGFAPADLLSAGG [r13_108_JUSTAS] | 0.172 ± 0.055
SAGGSAGGSAGGNVIRVEKEPNTVVLYFPDGTYRVVEVEKKDESVKVLSEKVEPIVPGLLSAGGSAGGSAGG [r7_443_JUSTAS] | -0.177 ± 0.2
SAGNIKIEVEELGPGWYVIKVEIPYDSPEQMLDMIKDIIRDFFGEPVKIDEVEIDPDEGWIEKTIRIPLSAG [r5_810_TrROS] | 1.64 ± 0.07
SAGGMKIKIKIKPGQVILIKIRNKETGEEKTILVEVKEDQEITIELPEGYEIVDIKIVPLEDLPEEELSAGG [r13_119_TrROS_Hall] | 3.96 ± 0.17
SAGGSAMMELEIEIKVEGMTEEELRELAERLAAELTPEGWKVVAVRVERVDEEEGVVRVTVVVEPVSAGGSA [r15_96_TrROS_Hall] | 3.83 ± 0.16
SAGGSAGGSAGGMLALIYGKEKPILLSAEEILNNPELLKELEKKGYPIVKIEFFKEEELSAGGSAGGSAGGS [r10_396_TrMRF] | 0.478 ± 0.15
SAGGSAGGSKKVYLKVTVYHKNGKKTTLEIGPITDEDGKPIETYAKELAEHPDVEKVEVEVLGSAGGSAGGS [r12_199_TrMRF] | 4.19 ± 0.13
SAGGDVKEFDSPEDLNKALPALKNGKEVHIRVEMRMPQPDPDGEPRQYPMEFWYTIKLKNGELEIEPISAGG [r13_835_TrROS] | 0.988 ± 0.091
SAGGSAGGRTLRIMVPMDSPEDAVEQAKEIVRELGLPPNFKIDDINVHRNPNGRYQVMVKIRVNSAGGSAGG [r6_284_TrROS] | 1.5 ± 0.07
SAGGSAGGSAGNKYLIKVKKKNGNKSEELEIEVEDNPEIAEKIAEELKKKGNIVSVEIKKASAGGSAGGSAG [r3_310_TrMRF] | 0.403 ± 0.21
SAGGSVRLELEGVNPETGERYRLEFELPPVPLPPVLVVPLEDLELLRRLGIPEDAAVFPELGLVVVASAGGS [r16_194_TrMRF] | 2.76 ± 0.051
SAGGSAGGMTITISTGSSGLTVNITLTPPTGPPVTVTISFDPSELEEFLKELPDYEIESITVEGSAGGSAGG [r6_879_JUSTAS] | 2.73 ± 0.15
SAGGSAGGSALLEALKALPPNATLTLVTVETRTETVTDADGSTHTRTTTRVTVTTITIRPEDLSAGGSAGGS [r12_805_TrROS_Hall] | 3.67 ± 0.089
SAGGSAGGSAGVEEIAKILQELGFEVEVEPVPDGMRTIEVQNKNGKKITIRITADGKIEISAGGSAGGSAGG [r17_503_TrROS] | 2.2 ± 0.14
SAGGSAGGSAGGMKTIVLPNVTPEEAEALAAELEKKYPGRTVNVTYVPENPTTVVITVGSAGGSAGGSAGGS [r10_852_JUSTAS] | 2.54 ± 0.12
SAGMTTVEVTRTFPADVPVTEEDLELAEKEREEIAAELPESYVVTLASVTYERRPDSWTVTATFTITAPSAG [r5_121_JUSTAS] | 2.11 ± 0.06
SAGGSAGGSAGMNPVVIETTETLPNGTVVRTTEIVDPSNPDKVVSTKTEISSVPSNAPLLSAGGSAGGSAGG [r17_299_JUSTAS] | 0.113 ± 0.043
SAGGSAGGMKQYIVTVTLKSPDGTEHTIELETESLDEVKEKLKNLPDPNLELVELKVVPKEELASAGGSAGG [r6_297_JUSTAS] | 2.21 ± 0.035
